Three substances from paper PMC3444823 can be followed below.

In test [1] the target is truncated HIV-1 gp120MS (residues 83-492, intact variable loops) (HIV-1 (clade A isolate)). Description: SEC. (In general: SEC sorts molecules by how far they enter the pores of the column.)
The target of test [2] is truncated HIV-1 gp120SC (residues 83-492, intact variable loops) (HIV-1 (clade B isolate)). The experiment in a line: SEC.
The target in test [3] is single-chain fusion protein of CD4i antibody domain m36.4 with gp140SC (human | HIV-1 (clade B isolate)). The experiment in a line: SPR. (In general: SPR reads the build-up and loss of mass on a sensor chip optically.)
Test [4] addresses single-chain fusion protein of CD4i scFv m9 with gp120SC (HIV-1 (clade B isolate)). Description: SPR.
The target in test [5] is truncated HIV-1 gp120MS (residues 83-492, intact variable loops) (HIV-1 (clade A isolate)). The experiment in a line: SPR.
Test [6] concerns the target single-chain fusion protein of CD4i antibody domain m36.4 with gp120MS (human | HIV-1 (clade A isolate)). Description: SPR.
For test [7], the target named is truncated HIV-1 gp120SC (residues 83-492, intact variable loops) (HIV-1 (clade B isolate)). Description: SPR.
Test [8] concerns the target stabilized gp120SC with T257S+S375W mutations (HIV-1 (clade B isolate)). The experiment in a line: SPR.
Test [9] has as its target single-chain fusion protein of CD4i antibody domain m36.4 with gp120SC (human | HIV-1 (clade B isolate)). The experiment in a line: SPR.

pKd: −log10 of the molar value.

What is called stoichiometry N is a count of units in the complex or per binding partner. “truncated HIV-1 gp120MS (residues 83-492, intact variable loops) (domain or fragment)” displayed a stoichiometry N in test [1] of 2.

For the substance “truncated HIV-1 gp120SC (residues 83-492, intact variable loops) (domain or fragment)”, the stoichiometry N in [2] was 2.

Usually pKd stands for −log10 of the Kd, conventionally taken in molar units. Take “two-domain human soluble CD4 (domain or fragment)”: the pKd is 8.72 in test [3]; 8.74 in test [4]; 9.68 in test [5]; 9.82 in test [6]; 6.98 in test [7]; 7.23 in test [8]. The substance further gave a pKd in test [9] of 9.14.
